According to patent publication US6500430B1, “Product and process to regulate actin polymerization in T lymphocytes” (National Jewish Medical and Research Center, priority 1995, dated 2002):
Positions count from the first letter of the chain named.

Columns and labels:
TCR-ζ = experiment: Cell-free association of TCR-ζ with the actin cytoskeleton (detergent soluble lysate, newly polymerized pellet); assay type: biochemical, murine
Protocol: Freshly isolated murine thymocytes or lymph node T cells, or CD25/ζ-expressing T cell hybridomas, were washed 3 times in BSS and incubated in the presence or absence of cytochalasin D for 1.5 hrs at 4° C., solubilized with 0.5% NP-40 in a Tris buffered saline solution (TBS; 150 mM NaCl, 10 mM Tris, pH 7.3) containing protease and phosphatase inhibitors (0.2 mM VO3, 10 mM NaF, 1 mM PMSF, and 1 mg/ml each of Aprotinin, Leupeptin, and α-l-antitrypsin) and centrifuged at 10,000 rpm for 10 min to pellet the insoluble material. […] To increase actin polymerization, the Mg^2+ concentration was increased to 2 mM. […] Immunoprecipitation of the detergent soluble fraction with anti-TCR-ζ antibody was then performed as described in Example 4. The pellet and the anti-TCR-ζ immunoprecipitate were resolved by SDS-PAGE gel electrophoresis and immunoblotted with anti-TCR-ζ antibody.

IL-2 production = IL-2 production by T cells expressing chimeric molecules after antibody cross-linking; assay type: cell-based; conditions: for IL-2 production, fold less than the wild-type CD8/ζ: maximal stimulation with anti-CD8-α antibody, 24 hours, FIG. 4
Protocol: Microcultures of 0.25 ml were prepared containing 10^5 responding T cells expressing CD8/ζ, CD8/ζD67-126, CD8/ζY153E, CD25/ζ or CD25/ζY153E. For stimulation, microtiter wells were precoated with 50 μl of a phosphate-buffered saline solution containing varying concentrations of purified anti-CD8-α antibody (19/178) or anti-hCD25 antibody (B1.49.9) to cross-link the CD8/ζ, CD8/ζD67-126 and CD8/ζY153E, or CD25/ζ and CD25/ζY153E, respectively, on the surface of the T cells. Control wells were coated with an irrelevant antibody. After 2 hours at room temperature and 1 hr at 4° C., the wells were washed three times with fetal calf serum-containing tissue culture medium. […]. After 24 hours in culture, the supernatants were harvested and assayed for IL-2 content using methods generally described in Gillis et al. (J. Immunol. 120:2027-2032, 1978). A concentration of 1 U/ml of IL-2 was the minimum detectable in this assay.

[1] = test system: BW 5147 α−β− thymoma transfectants; experiment: Association of chimeric or truncated TCR-ζ molecules with the cytoskeleton upon receptor ligation (immunoblot of detergent insoluble pellet); assay type: cell-based; conditions: substitution of the distal COOH-terminal tyrosine of the third ITAM

Molecule: [Mg+2] [Mg^2+, reference compound]
- TCR-ζ binding with actin polymerization induced in vitro (TCR-ζ; 2 mM Mg2+ alone): without additional TCR-ζ binding

Molecule: CD8/ζD67-126: truncated CD8/ζ chimera expressing only intact ζc domain (SEQ ID NO:29) (RAKFSRSAETAANLQGTKGERRRGKGHDGLYQGLSTATKDTYDALHMQTLAPR)
- IL-2 production, fold less than the wild-type CD8/ζ (IL-2 production): 40 fold

B1: CD25/ζ: chimera of extracellular and transmembrane regions of CD25 and the cytoplasmic domain of TCR-ζ (protein)
chain: ELCDDDPPEIPHATFKAMAYKEGTMLNCECKRGFRRIKSGSLYMLCTGNSSHSSWDNQCQCTSSATRNTTKQVTPQPEEQKERKTTEMQSPMQPVDQASLPGHCREPPPWENEATERIYHFVVGQMVYYQCVQGYRALHRGPAESVCKMTHGKTRWTQPQLICTGEMETSQFPGEEKPQASPEGRPESETSCLVTTTDFQIQTEMAATMETSIFTTEYQVAVAGCVFLLISVLLLSGLRAKFSRSAETAANLQDPNQLYNELNLGRREEYDVLEKKRARDPEMGGKQQRRRNPQEGVYNALQKDKMAEAYSEIGTKGERRRGKGHDGLYQGLSTATKDTYDALHMQTLAPR
- Co-sedimentation with the actin cytoskeleton in vitro (TCR-ζ; in vitro activating (MgATP) condition, depleted from the pellet under actin depolymerizing conditions): co-sediments with the actin cytoskeleton

B2: CD25/ζY153F: CD25/ζ with the tyrosine at residue 153 substituted for a phenylalanine (SEQ ID NO:31) (protein)
chain: RAKFSRSAETAANLQDPNQLYNELNLGRREEYDVLEKKRARDPEMGGKQQRRRNPQEGVYNALQKDKMAEAYSEIGTKGERRRGKGHDGLYQGLSTATKDTFDALHMQTLAPR
- Tyrosine phosphorylation of a set of proteins induced by receptor ligation, compared with the intact CD25/ζ chimera (IL-2 production; receptor ligation): qualitatively and quantitatively indistinguishable
- Effect of removal of the distal tyrosine (Y153F) on cytoskeletal association [1]: almost completely abrogated cytoskeletal association

B3: CD8/ζY153E: substituted CD8/ζ chimera (SEQ ID NO:30) (protein)
chain: B2 chain with F102E
- IL-2 production, fold less than the wild-type CD8/ζ (IL-2 production): 100 fold
